From patent US20240002497A1 (Merck Sharp & Dohme, published 2024) come the findings set out here.

The target of one experiment is T1, Navβ3 (human, UniProt Q9NY72 23-215, limits assumed).
T1 construct: also called beta3 subunit
The experiment in a line: binding ELISA.

A further experiment deals with T2, huNav157chim4 + β1-β2-β3 (human, UniProt Q15858 44-1988; A5A6L6 19-218; O60939 30-215; Q2KI11 23-215).
T2 construct: DII, DIII, DIV from Nav1.7α, DI from Nav1.5α; also called huNav157 chimera 4
Kind of experiment: FACS, transiently transfected HEK293T cells. How it is done:
(§1) Binding of the ISVDs to cell-expressed Nav1.7α was detected via murine anti-Flag (Sigma, catalog #F1804). Briefly, cells were resuspended in FACS buffer (PBS, 10% FBS, NaN₃) and transferred to a 96-well V-bottom plate at 1×10^5 cells/well. Purified FLAG3-tagged ISVD was diluted in FACS buffer and added to the cells for 30 minutes at 4° C. […] Prior to the read-out, the samples were resuspended in 1 μg/mL propidium iodide (Sigma, catalog #P4170) to exclude dead cells. Between each step, the cells were centrifuged for 5 minutes at 200 grams and washed with 100 μL/well FACS buffer.
(§2) FACS binding studies (as described above) were performed on HEK293T cells transiently transfected with expression vectors encoding a huNav1.7α or rhNav1.7α fused at the C-terminus via a P2A viral peptide linker to a single polypeptide encoding sodium channel beta subunits Navβ1, Navβ2, and Navβ3 in tandem (β1-β2-β3; SEQ ID NO:21). Similarly, HEK293T cells transiently transfected with expression vectors encoding chimeric variants of huNav1.7α in which individual domains are replaced by their huNav1.5α counterparts (chimeras 1 to 4 in FIG. 16) or with chimeric variants of huNav1.5 in which individual domains are replaced by their huNav1.7α counterparts (chimeras 5 to 8 in FIG. 16) fused at the C-terminus via a P2A viral peptide linker to β1-β2-β3 as above. See Table 7 for description of the expression vectors encoding the chimeras, Table 21 and FIG. 16).

A further experiment addresses T3, huNav157chim5 + β1-β2-β3 (human).
T3 construct: DI, DII, DIII from Nav1.5α, DIV from Nav1.7α; also called huNav157 chimera 5
Kind of experiment: FACS, transiently transfected HEK293T cells. How it is done:
as §1, §2

The target of a further experiment is T4, huNav157chim6 + β1-β2-β3 (human).
T4 construct: DI, DII, DIV from Nav1.5α, DIII from Nav1.7α; also called huNav157 chimera 6
Kind of experiment: FACS, transiently transfected HEK293T cells. How it is done: as §1, §2

For the next experiment, the target named is T5, huNav157chim7 + β1-β2-β3 (human).
T5 construct: DI, DIII, DIV from Nav1.5α, DII from Nav1.7α; also called huNav157 chimera 7
The experiment in a line: FACS, transiently transfected HEK293T cells. How it is done: as §1, §2

In experiment [1] the target is T6, huNav157chim12 + β1-β2-β3 (human, UniProt Q15858 1-1988; A5A6L6 19-218; O60939 30-215; Q2KI11 23-215).
T6 construct: DI S5-S6 from Nav1.5α, rest Nav1.7α; also called huNav157 chimera 12
The experiment in a line: FACS, transiently transfected HEK293T cells. How it is done:
as §1, §2

The target of experiment [2] is T7, huNav1.7α + β1-β2-β3 (human, UniProt Q15858 1-1988; A5A6L6 19-218; O60939 30-215; Q2KI11 23-215).
T7 construct: Cell line (CHO FlpIn, HEK FlpIn, transient HEK293T) is named under assay; also called huNav1.7-beta1-beta2-beta3; human Nav1.7α with Navβ1, Navβ2 and Navβ3
Kind of experiment: competition FACS, HEK FlpIn cells, vs EC30 of CMYC3-F0103265B04. How it is done: Competition FACS assays were performed with CMYC3-tagged ISVD F0103265B04 or F0103275B05(N93R) affinity maturation variant on a HEK FlpIn huNav1.7α+β1−β2−β3 transgenic cell line. Briefly, cells were resuspended in FACS buffer (PBS, 2% FBS, 0.05% NaN₃) and 1×10⁵ cells/well were transferred to 96-well V-bottom plates. Cells were subsequently resuspended in a 100 μL mixture of purified ISVD (dilution series) and CMYC3-tagged ISVD F0103265B04 (at a concentration equivalent to EC30) followed by incubation for 1.5 hours at 4° C. […] Between each step, the cells were centrifuged for 5 minutes at 200 g and washed with 100 μL/well FACS buffer. Prior to the read-out, the samples were resuspended in 5 nM TOPRO3 (Molecular probes, catalog #T3605) to exclude dead cells. F0103262CO2, F0103262B06, F0103265A11, F0103265B04, F0103275B05, F0103362B08, and F0103387G04 all compete with F0103265B04 for binding to huNav1.7α, in contrast to an irrelevant control ISVD (IRR) (see Table 21 and FIG. 15A, FIG. 15B, FIG. 15C, and FIG. 15D).

Another experiment deals with T8, huNav1.7α (human, UniProt Q15858 1-1988).
T8 construct: HEK cells expressing the α subunit alone; also called HEKa; HEK huNav1.7α
Kind of experiment: further characterization (binding ELISA and FACS).

For experiment [3], the target named is T7, huNav1.7α + β1-β2-β3. The experiment in a line: binding FACS, CHO FlpIn cells. How it is done:
as §1
(§3) Based on the huNav1.7α model (as described above) the following huNav1.7α-rhNav1.7α polymorphisms can be allocated to the extracellular part of DI: N146S, F276V, R277Q, E281V and V331M. The first of the residues is in DI S1-S2 whereas the latter four residues belong to DI S5-S6. FACS binding studies (as described above) were performed to stable CHO FlpIn cell lines expressing different variants of huNav1.7+β1−β2−β3 each including one of the four possible extracellular huNav1.7α-rhNav1.7α polymorphisms in the DI S5-S6 region: F276V, R277Q, E281V and V331M (Table 23 and FIGS. 22A-22F). Individual polymorphisms were each sufficient to abolish the binding of F0103265B04, F0103362B08, F010301080, and F0103262B06 to huNav1.7α, recapitulating the absence of binding on rhNav1.7α. F0103262CO2, F0103275B05 and F0103387G05 are more subtly affected in terms of EC50 or Bmax by some of the polymorphisms. None of the individual DI S5-S6 polymorphisms by themselves appear to have an impact on the binding of the two rhNav1.7α cross-reactive ISVDs F0103387G04 and F0103464B09. In addition, no effect on binding of the two ISVDs was observed (data not shown) for the three extracellular DIV VSD huNav1.7α-rhNav1.7α polymorphisms Q1530P, H1531Y and E1534D (FIG. 22G).

In a further experiment the target is T9, rhNav1.7α + β1-β2-β3 (rhesus monkey).
T9 construct: also called rhNav1.7-beta1-beta2-beta3; rhesus Nav1.7α
Kind of experiment: binding FACS, CHO FlpIn cells. How it is done:
as §1, §3

Experiment [4] concerns the target T10, huNav1.7α(F276V) + β1-β2-β3 (human, UniProt Q15858 1-1988; A5A6L6 19-218; O60939 30-215; Q2KI11 23-215).
T10 construct: polyprotein as encoded, P2A sites liberate the subunits; the entry already carries F276V; also called huNav1.7(F276V)-beta1-beta2-beta3
Kind of experiment: binding FACS, CHO FlpIn cells. How it is done:
as §1, §3

The target of experiment [5] is T11, huNav1.7α(R277Q) + β1-β2-β3 (human).
T11 construct: polyprotein as encoded; the entry already carries R277Q; also called huNav1.7(R277Q)-beta1-beta2-beta3
Kind of experiment: binding FACS, CHO FlpIn cells. How it is done:
as §1, §3

The target in experiment [6] is T12, huNav1.7α(E281V) + β1-β2-β3 (human).
T12 construct: polyprotein as encoded; the entry already carries E281V; also called huNav1.7(E281V)-beta1-beta2-beta3
Kind of experiment: binding FACS, CHO FlpIn cells. How it is done: as §1, §3

Experiment [7] addresses T13, huNav1.7α(V331M) + β1-β2-β3 (human).
T13 construct: polyprotein as encoded; the entry already carries V331M; also called huNav1.7(V331M)-beta1-beta2-beta3
The experiment in a line: binding FACS, CHO FlpIn cells. How it is done: as §1, §3

B1: F0103240B04 (VHH)
VHH: EVQLVESGGGLVQAGGSLRLSCAASGGTGRRYAMGWFRQAPGKEREIVAAIRWSAMTYYADDGKGRFTISRDNAKNTVYLQMNSLKPEDTAIYYCAYTWDYFKYDQVRAYRGWGQGTLVTVSS
notes: Purified monovalent protein; also called anti-Navβ2 ISVD F0103240B04
In the case of B1, the binding result with Navβ3 is listed as “no binding”.

B2: F0103265A11 (VHH)
VHH: EVQLVESGGGLVQPGGSLRLSCAASGMLFNANTQGWYRQAPGKQRELVAFIFSGGYTNYVDSVKGRFTISRDNAKRTMYLQMNSLKPEDSAIYYCSLSRYLGQGTLVTVSS
notes: entry includes the FLAG-HIS6 tag; also called F0103265A11 (parental)-FLAG-HIS6
For B2, the binding result (in the experiment with huNav157chim4 + β1-β2-β3; in the experiment with huNav157chim5 + β1-β2-β3; in the experiment with huNav157chim6 + β1-β2-β3; in the experiment with huNav157chim7 + β1-β2-β3; in experiment [1]) was “no binding (tested: 1 µM)” throughout. Besides, in the experiment with huNav1.7α + β1-β2-β3 [2], the IC50 came to 75 nM.

B3: F0103478E09 (VHH)
VHH: EVQLVESGGGLVQAGGSLRLSCAASGRAFSTLAMGWFRQAPGKEREFVAAISRNGNNSATGDSLKGRFTISRDSTKSTVFLQMNTLKPEDTAVYYCAAISTPSASHPYVRKESYRYWGQGTLVTVSS
notes: Purified monovalent protein
Take B3: the binding result with Navβ3 and with huNav1.7α was “no binding” throughout.

B4: F0103505D08 (VHH)
VHH: EVQLVESGGGLVQAGGSLRLSCVTSGRTSDLSTMNWFRQAPGKEREFVARITRRGSTYYAESVKERFIISRDNAKNTVYLQMNSLKPEDTANYYCTAASEMGYHYRGQGTLVTVSS
notes: Purified monovalent protein; also called F0103505D8
For the molecule B4, the binding result in the experiment with Navβ3 and with huNav1.7α was “no binding” in each case.

B5: F0103495F09 (VHH)
VHH: EVQLVESGGGLVQAGSSLSLSCAASGRALSTYAMGWFRQAPGKEREFVARISRSGITTYYTDSVKGRFTISRDRAKDTVYLQMNSLKPEDTAIYLCAADASTNPAGYYLRNRYDYWGQGTLVTVSS
notes: also called F103495F09
Turning to B5, in the experiment with huNav1.7α, the binding result was “no binding”.

B6: F0103492E09 (VHH)
VHH: EVQLVESGGGLVQAGGSLRLSCAASKSILSFAYMRWYRQAPGKQREFVASIAIGGATSYTDSVKGRFTISRDNAKNTVYLQMNSLKPEDTAVYYCSAPAGQYRGQGTLVTVSS
notes: Purified monovalent protein
As for B6, the binding result in the experiment with Navβ3 and with huNav1.7α was “no binding” in each case.

B7: F0103262C02 (VHH)
VHH: EVQLVESGGGLVQAGGSLTLSCAASGLPFGLYILGWIRRAPGKERDFVAAISRSGRDTVYANSVKGRFTISRDNAKNMVYLRMDNLRPEDTAAYYCAVDSVPRGTPTITESEYAIWGQGTLVTVSS
notes: entry includes the FLAG-HIS6 tag; also called F0103262C02 (parental)-FLAG-HIS6; F103262CO2
Regarding B7, the EC50 worked out at 290 nM with huNav1.7α + β1-β2-β3 [3]; 210 nM in [4]; 450 nM in experiment [5]; 240 nM in experiment [6]; 86 nM in [7]. The binding result in the experiment with rhNav1.7α + β1-β2-β3 is “no binding”; in the experiment with huNav157chim4 + β1-β2-β3, “no binding (tested: 1 µM)”; in the experiment with huNav157chim5 + β1-β2-β3 it was “no binding (tested: 1 µM)”; with huNav157chim6 + β1-β2-β3, “no binding (tested: 1 µM)”; with huNav157chim7 + β1-β2-β3, “no binding (tested: 1 µM)”; in [1] it was “no binding (tested: 1 µM)”. In the experiment with huNav1.7α + β1-β2-β3 [2], the IC50 came out at 530 nM.

B8: F0103500E03 (VHH)
VHH: EVQLVESGGGLVQPGGSLRLSCAASGRTFSRYQMGWFRQAPGKEREFVAYISWSGSTRYVDSVKGRFTISRDNAKNTVYLQMNSLKPEDTAVYHCAAGTAGIISSRPETYDSWGQGTLVTVSS
notes: Purified monovalent protein
B8: the binding result in the experiment with Navβ3 and with huNav1.7α was “no binding” throughout.
